Source: patent publication US20120172306A1, “Use of HASF as a Protective Agent Against Ischemic Tissue Damage” (Duke University, priority 2009, published 2012)

Tests used:
[1] = test system: adult rat cardiomyocytes; experiment: Caspase-Glo 9 and 3/7 assays of H2O2 induced apoptosis; type: cell-based; details: 10 nM for 30 min, 100 μM H2O2, 5 h
Protocol: FIGS. 2B and 2C are bar graphs showing relative caspase activity. Adult rat cardiomyocytes were freshly isolated and treated ±10 nM of HASF for 30 min, and then challenged with 100 μM of H2O2 for various time points. H2O2 induced apoptosis in cardiomyocytes was evidenced by the dynamic increase in the activities of the initiator Caspase 9 and effector Caspase […] at 5 h, 7 h and 9 h respectively. Y axis represent the relative amount of luminescence indicating the relative amount of active Caspase activities. ** P<0.01 and *** P<0.001. Data are presented as means±standard deviation of triplicates.
FIG. 3C is a bar graph showing fold-change in caspase activity. Serum-starved adult rat cardiomyocytes were treated with 3 μM PKC inhibitors or vehicle DMSO for 30 minutes, then 100 nM HASF recombinant protein was added for 30 minutes followed by treatment with 200 μM H2O2 for 3 hours. Apoptosis was determined by detection of Caspase-9 activity using a homogeneous luminescent assay. All samples were measured in triplicates. *P<0.05 vs. non-HASF treated cells.
FIG. 4C is a bar graph showing relative caspase activity in adult cardiomyocytes. Apoptosis as determined by detection of Caspase-9 activity on adult rat cardiomyocytes pre-treated with 178 μM PKC translocation inhibitor peptide for 10 minutes and then with 100 nM of HASF for 30 minutes. Thereafter, cells were challenged with 200 μM H2O2 for 3 hours. All samples were measured in triplicates. *P <0.05 vs. non-HASF treated cells and the experiment was repeated multiple times.
Adult rat ventricular cardiomyocytes were isolated from 6 weeks old female Sprague-Dawley rat (Harlan World Headquarters, Indianapolis, Ill., USA) hearts by enzymatic digestion and were seeded in (6-well) plates or Delta T culture dishes (Bioptechs, Inc., Pa.) pre-coated with 1 μg/cm2 of laminin (Sigma) at 5×10^4/well and cultured overnight in serum-free M199 medium (Sigma), supplemented with 2 mM of L-carnitine, 5 mM of creatine, 5 mM of taurine, 0.2% of albumin, 100 U/ml of penicillin and 100 μg/ml of streptomycin. […]

[2] = test system: PKC, Raf, ERK 1/2, PDK1 phosphorylation in adult rat cardiomyocytes; experiment: Western blot analysis of signaling protein phosphorylation (PKC/ERK pathway); type: cell-based
Protocol: FIG. 3A is a photograph of an electrophoretic gel. HASF activates the PKC pathway. A. Western blots analysis for various signaling proteins. Serum-starved adult rat cardiomyocytes were stimulated with 100 nM HASF recombinant protein for various time courses. Cell lysate was collected and the proteins were resolved by SDS-PAGE. Insulin from bovine pancreas was used as a positive control. min: minutes of treatment.
FIG. 3B is a photograph of an immunoblot. Serum-starved adult rat cardiomyocytes were pre-treated with 3 μM PKC inhibitors BIM, Gö6976, or Gö6983 for 30 minutes, then stimulated with 100 nM HASF recombinant protein for 5-10 min and cells were harvested. Total cell lysates were used to analyze the levels of ERK1/2 phosphorylation by western blot analysis.
FIG. 4A is a photograph of an immunoblot. Western blot analysis for PKC E and PKC delta phosphorylation on total cell lysates from serum-starved adult rat cardiomyocytes stimulated with 100 nM HASF recombinant protein at 5 and 30 min. HASF b1 and b2 represent different batches of recombinant protein. PMA was used as positive control.
FIG. 4B is a photograph of an immunoblot. Western blot analysis for ERK1/2 phosphorylation on total cell lysates from adult rat cardiomyocytes pre-treated with 10 pM PKC epsilon translocation inhibitor peptide for 20 min, then 100 nM HASF recombinant protein was added for 5 min or 10 min.
FIGS. 8A-B are photographs of immunoblots. Western blot analysis for PKC a/b and PKC theta phosphorylation on total cell lysates from serum-starved adult rat cardiomyocytes stimulated with 100 nM HASF recombinant protein for the indicated times. HASF batch 1 and 2 represent different batches of recombinant protein. PMA was used as positive control.
Rabbit polyclonal antibodies for phospho-pan PKC, phospho-ERK1/2, phospho-raf, phosphor-PDK1, total Akt were obtained from Cell Signaling Tech. Rabbit polyclonal antibody for phospho-PKC epsilon, phospho-Bad, and GAPDH was obtained from Abeam. HRP-conjugated goat anti-rabbit secondary antibody was obtained from Cell Signaling Tech.

[3] = 100 nM, within 5-10 minutes of treatment

B1: HASF: Hypoxia regulated Akt MSC Factor, secreted protein encoded by C3orf58; recombinant human protein without N-signal sequence, SEQ ID NO:1 or 2 (protein, UniProt Q8NDZ4 36-430, looked up)
Divergent protein kinase …: LASWQRNELTDRRFLQLNKCPACFGTSWCRRFLNGQVVFEAWGRLRLLDFLNVKNVYFAQYGEPREGGRRRVVLKRLGSQRELAQLDQSICKRATGRPRCDLLQAMPRTEFARLNGDVRLLTPEAVEGWSDLVHCPSQRLLDRLVRRYAETKDSGSFLLRNLKDSERMQLLLTLAFNPEPLVLQSFPSDEGWPFAKYLGACGRMVAVNYVGEELWSYFNAPWEKRVDLAWQLMEIAEQLTNNDFEFALYLLDVSFDNFAVGPRDGKVIIVDAENVLVADKRLIRQNKPENWDVWYESKFDDCDKEACLSFSKEILCARATVDHNYYAVCQNLLSRHATWRGTSGGLLHDPPSEIAKDGRLEALLDECANPKKRYGRFQAAKELREYLAQLSNNVR
modifications: 6xHis tag
[1]
  reduction of Caspase 3/7: ~45%
  reduction of Caspase 9: ~38%
[2]; 100 nM HASF
  activity (phosphorylation) of the other PKC isoforms tested (PKC α/β, σ, σ/λ, θ): did not affect
[2]; 100 nM HASF, 5 and 30 min
  phosphorylation of PKCe: increased the phosphorylation of PKCe selectively
[2]; 100 nM, 0-60 minutes
  phosphorylation of PDK1: not increased
[2]; [3]
  phosphorylation of ERK 1/2: increased dramatically
  phosphorylation of PKC: increased dramatically
  phosphorylation of Raf: increased dramatically
